# Results from the supplement of paper PMC10065799, “High-throughput profiling of sequence recognition by tyrosine kinases and SH2 domains using bacterial peptide display” (eLife, 2023).
# Experiments:
# Hck = Hck (UniProt P08631); experiment: phosphorylation enrichment, bacterial display (enrichment ratio); higher = better substrate or ligand; peptides without Tyr show the background
# EPHB2 = EPHB2 (UniProt P29323); experiment: as above
# FGFR1 = FGFR1 (UniProt P11362); experiment: as above
# Fes = Fes (UniProt P07332); experiment: as above
# Sequence of Fes (P07332 whole entry, looked up): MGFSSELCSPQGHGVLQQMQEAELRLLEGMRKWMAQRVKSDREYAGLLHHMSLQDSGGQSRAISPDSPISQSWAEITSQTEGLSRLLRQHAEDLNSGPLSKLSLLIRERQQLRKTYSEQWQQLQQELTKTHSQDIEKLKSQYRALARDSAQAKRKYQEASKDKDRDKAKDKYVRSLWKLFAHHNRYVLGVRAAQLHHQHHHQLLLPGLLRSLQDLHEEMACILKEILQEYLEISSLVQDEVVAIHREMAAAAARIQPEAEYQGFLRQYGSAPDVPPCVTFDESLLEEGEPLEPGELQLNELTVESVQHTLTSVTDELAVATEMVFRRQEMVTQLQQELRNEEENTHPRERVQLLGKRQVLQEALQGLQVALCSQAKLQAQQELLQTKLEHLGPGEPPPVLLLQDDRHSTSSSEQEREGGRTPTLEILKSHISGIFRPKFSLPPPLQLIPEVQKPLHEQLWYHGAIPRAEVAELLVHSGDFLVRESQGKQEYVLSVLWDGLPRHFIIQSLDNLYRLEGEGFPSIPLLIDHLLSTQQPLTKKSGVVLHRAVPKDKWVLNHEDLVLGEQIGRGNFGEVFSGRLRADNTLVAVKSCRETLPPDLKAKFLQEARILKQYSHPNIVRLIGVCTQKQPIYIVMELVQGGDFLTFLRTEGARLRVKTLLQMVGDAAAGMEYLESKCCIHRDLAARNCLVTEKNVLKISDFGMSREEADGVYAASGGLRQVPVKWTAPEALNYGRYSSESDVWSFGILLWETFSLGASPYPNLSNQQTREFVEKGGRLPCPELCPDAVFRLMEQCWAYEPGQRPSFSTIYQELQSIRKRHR
# FGFR3 = FGFR3 (UniProt P22607); experiment: as above
# EPHB1 = EPHB1 (UniProt P54762); experiment: as above
# Sequence of EPHB1 (P54762 whole entry, looked up): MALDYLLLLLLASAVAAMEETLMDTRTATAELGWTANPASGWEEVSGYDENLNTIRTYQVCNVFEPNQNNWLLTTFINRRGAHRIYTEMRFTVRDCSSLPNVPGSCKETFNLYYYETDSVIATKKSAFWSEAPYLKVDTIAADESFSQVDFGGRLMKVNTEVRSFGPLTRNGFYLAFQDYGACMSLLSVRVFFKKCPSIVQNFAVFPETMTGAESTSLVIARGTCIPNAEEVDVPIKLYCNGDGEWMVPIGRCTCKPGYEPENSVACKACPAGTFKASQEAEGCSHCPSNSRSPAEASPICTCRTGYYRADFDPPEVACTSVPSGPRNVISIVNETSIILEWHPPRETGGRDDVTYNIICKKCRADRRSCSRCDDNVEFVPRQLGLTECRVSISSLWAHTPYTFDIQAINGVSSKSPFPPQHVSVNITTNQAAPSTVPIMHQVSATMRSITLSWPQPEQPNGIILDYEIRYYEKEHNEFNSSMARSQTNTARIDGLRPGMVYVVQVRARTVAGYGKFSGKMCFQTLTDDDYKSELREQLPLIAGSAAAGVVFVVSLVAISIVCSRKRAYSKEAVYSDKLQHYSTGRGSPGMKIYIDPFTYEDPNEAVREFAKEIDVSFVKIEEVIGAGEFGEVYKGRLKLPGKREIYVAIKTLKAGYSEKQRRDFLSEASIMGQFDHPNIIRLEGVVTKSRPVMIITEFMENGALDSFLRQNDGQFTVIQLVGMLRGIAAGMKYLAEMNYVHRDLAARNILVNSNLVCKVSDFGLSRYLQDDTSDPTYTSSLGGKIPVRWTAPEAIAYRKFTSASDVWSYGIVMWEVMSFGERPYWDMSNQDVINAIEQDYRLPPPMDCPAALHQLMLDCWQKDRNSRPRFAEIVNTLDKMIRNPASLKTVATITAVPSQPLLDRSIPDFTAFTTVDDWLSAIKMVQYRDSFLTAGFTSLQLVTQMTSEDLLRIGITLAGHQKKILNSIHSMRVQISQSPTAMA
# c-Abl (mouse) = experiment: as above
# Jak2 = Jak2 (UniProt O60674); experiment: as above
# Sequence of Jak2 (O60674 whole entry, looked up): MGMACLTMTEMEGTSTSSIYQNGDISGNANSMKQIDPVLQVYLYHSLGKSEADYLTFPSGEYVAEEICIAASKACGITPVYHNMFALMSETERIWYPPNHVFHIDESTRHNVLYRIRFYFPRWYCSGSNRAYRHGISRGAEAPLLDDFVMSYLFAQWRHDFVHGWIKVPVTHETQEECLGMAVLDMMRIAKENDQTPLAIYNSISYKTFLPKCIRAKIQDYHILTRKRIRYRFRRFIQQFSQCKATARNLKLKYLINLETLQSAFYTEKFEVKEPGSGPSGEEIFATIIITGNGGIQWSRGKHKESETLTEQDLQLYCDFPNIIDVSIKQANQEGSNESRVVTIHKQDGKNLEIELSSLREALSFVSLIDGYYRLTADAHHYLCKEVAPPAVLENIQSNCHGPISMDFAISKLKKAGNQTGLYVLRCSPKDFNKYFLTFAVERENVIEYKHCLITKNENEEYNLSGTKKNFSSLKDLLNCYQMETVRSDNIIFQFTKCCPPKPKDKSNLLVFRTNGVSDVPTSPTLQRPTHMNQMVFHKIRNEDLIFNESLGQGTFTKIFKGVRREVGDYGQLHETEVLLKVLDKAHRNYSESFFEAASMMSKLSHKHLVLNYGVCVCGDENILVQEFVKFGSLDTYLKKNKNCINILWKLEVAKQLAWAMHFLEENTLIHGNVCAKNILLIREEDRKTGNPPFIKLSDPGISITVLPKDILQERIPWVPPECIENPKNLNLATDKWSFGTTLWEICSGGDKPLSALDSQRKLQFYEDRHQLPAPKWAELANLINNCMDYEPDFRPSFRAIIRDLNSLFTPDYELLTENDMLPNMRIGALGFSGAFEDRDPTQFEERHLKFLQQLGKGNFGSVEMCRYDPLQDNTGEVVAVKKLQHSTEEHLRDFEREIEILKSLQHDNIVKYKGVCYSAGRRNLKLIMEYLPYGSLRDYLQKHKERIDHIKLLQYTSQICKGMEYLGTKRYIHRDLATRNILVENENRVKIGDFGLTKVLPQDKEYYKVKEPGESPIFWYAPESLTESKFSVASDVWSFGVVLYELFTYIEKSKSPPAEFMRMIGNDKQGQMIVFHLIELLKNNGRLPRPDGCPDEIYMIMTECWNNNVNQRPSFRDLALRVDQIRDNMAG
# c-Src = experiment: as above
# Fer (mouse) = experiment: as above
# Fyn = Fyn (UniProt P06241); experiment: as above
# Sequence of Fyn (P06241 whole entry, looked up): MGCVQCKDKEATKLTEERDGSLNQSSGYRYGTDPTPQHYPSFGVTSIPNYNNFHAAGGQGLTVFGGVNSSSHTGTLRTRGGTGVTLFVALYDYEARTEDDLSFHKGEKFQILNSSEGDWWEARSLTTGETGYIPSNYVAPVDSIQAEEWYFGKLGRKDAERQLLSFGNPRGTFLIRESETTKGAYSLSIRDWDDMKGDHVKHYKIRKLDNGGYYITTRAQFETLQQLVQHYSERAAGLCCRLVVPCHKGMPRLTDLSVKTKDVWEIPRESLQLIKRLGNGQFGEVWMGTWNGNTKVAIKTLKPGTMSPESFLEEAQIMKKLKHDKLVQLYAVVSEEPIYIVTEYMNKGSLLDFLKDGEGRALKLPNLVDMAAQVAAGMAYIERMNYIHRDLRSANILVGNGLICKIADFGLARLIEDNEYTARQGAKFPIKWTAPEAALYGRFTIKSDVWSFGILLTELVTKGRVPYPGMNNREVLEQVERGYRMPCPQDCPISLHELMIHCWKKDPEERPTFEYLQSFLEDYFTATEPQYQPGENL
# MERTK = MERTK (UniProt Q12866); experiment: as above
# AncSZ = experiment: as above
# SHP2-C SH2 = experiment: SH2 binding enrichment of the phosphorylated peptide, bacterial display (enrichment ratio); higher = better substrate or ligand; peptides without Tyr show the background
# Grb2 SH2 = Grb2 SH2 (UniProt P62993); experiment: as above
# Sequence of Grb2 SH2 (P62993 whole entry, looked up): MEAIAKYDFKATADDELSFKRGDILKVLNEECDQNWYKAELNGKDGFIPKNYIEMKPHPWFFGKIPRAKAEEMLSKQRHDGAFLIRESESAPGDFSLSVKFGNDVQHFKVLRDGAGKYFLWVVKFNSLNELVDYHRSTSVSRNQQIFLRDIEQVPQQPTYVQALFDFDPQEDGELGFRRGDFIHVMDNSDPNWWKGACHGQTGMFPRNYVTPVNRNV
# c-Src SH2 = experiment: as above
# 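Throughout, for SH2 binding enrichment of the phosphorylated peptide, bacterial display: peptide library displayed on the E. coli surface as eCPX fusions, selected cells deep-sequenced, score is each peptide's frequency after selection divided by its frequency in the input.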
# 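Throughout, for phosphorylation enrichment, bacterial display: 11-residue human phosphosite peptides and single-mutation variants displayed on the E. coli surface, counted by deep sequencing, each peptide's frequency after selection divided by its frequency in the unselected input library; frequency after pTyr selection over input frequency; kinase dosed for 20-30% of maximal phosphorylation in three min.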
# Sequence of Hck (P08631 whole entry, looked up): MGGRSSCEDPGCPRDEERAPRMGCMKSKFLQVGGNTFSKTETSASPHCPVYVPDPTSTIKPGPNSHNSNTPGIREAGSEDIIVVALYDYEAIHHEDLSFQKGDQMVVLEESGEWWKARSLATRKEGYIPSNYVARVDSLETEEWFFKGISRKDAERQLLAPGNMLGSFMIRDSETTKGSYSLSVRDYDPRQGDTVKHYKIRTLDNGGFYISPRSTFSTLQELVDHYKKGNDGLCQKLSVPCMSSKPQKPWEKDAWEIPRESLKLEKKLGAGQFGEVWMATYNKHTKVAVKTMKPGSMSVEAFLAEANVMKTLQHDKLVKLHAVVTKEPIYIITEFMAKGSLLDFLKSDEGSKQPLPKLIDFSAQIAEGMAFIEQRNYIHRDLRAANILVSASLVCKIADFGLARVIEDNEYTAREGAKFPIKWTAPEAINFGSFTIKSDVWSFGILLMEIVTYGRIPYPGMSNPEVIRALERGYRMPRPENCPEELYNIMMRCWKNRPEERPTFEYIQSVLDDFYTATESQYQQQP
# Sequence of FGFR1 (P11362 whole entry, looked up): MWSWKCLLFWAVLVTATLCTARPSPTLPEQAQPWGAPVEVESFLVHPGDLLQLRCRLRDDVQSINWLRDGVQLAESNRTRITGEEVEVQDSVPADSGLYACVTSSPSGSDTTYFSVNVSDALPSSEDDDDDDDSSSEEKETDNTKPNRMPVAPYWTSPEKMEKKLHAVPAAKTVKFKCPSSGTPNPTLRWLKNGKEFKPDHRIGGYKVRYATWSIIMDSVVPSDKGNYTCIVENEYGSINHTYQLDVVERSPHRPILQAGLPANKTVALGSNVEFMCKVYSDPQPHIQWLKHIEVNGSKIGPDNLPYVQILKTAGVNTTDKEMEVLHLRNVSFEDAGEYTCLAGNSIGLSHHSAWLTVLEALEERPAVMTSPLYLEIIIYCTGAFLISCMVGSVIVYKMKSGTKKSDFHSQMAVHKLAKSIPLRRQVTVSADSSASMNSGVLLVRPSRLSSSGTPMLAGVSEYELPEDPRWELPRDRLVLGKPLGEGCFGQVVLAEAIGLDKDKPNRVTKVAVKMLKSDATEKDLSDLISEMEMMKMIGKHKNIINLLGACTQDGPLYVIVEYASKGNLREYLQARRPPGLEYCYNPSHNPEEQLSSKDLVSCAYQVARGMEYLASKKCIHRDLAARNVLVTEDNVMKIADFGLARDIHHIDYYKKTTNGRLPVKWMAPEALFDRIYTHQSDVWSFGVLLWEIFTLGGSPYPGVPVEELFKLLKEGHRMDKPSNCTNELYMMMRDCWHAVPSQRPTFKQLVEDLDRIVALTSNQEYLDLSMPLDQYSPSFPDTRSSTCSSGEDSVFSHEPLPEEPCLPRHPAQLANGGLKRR
Sequence,phosphorylation enrichment (Hck),phosphorylation enrichment (EPHB2),phosphorylation enrichment (FGFR1),phosphorylation enrichment (Fes),phosphorylation enrichment (FGFR3),phosphorylation enrichment (EPHB1),phosphorylation enrichment (c-Abl (mouse)),phosphorylation enrichment (Jak2),phosphorylation enrichment (c-Src),phosphorylation enrichment (Fer (mouse)),phosphorylation enrichment (Fyn),phosphorylation enrichment (MERTK),phosphorylation enrichment (AncSZ),SH2 binding enrichment (SHP2-C SH2),SH2 binding enrichment (Grb2 SH2),SH2 binding enrichment (c-Src SH2)
LLNAIYLSAKW [SERPING1_Y294],2.18,0.794,0.464,1.66,2.29,1.3,1.22,1.41,1.04,0.692,1.12,0.503,1.61,0.553,1.06,0.686
LLPNAYIYVVQ [L1CAM_Y418_A415P],0.908,1.32,1.34,2.47,1.5,1.71,1.07,1.69,1,0.539,1.05,1.01,2.28,0.707,0.683,0.432
LLQKTYNFNVL [SLC4A1_Y553_P548L_YF],0.88,0.984,0.889,1.2,1.24,0.909,0.77,0.81,0.594,1.05,0.749,0.997,1.41,0.916,1.09,0.593
LLREWYMIFSR [HUWE1_Y4066_I4069F],0.915,1.57,0.713,2,1.14,1.07,1.8,2.17,1.45,0.943,0.755,0.932,2.11,1.05,1.21,0.852
LLRLAYLADVF [ZBED5_Y476_I480V],0.628,0.583,0.577,1.19,0.725,0.74,0.704,0.924,0.47,0.633,0.484,0.537,1.18,2.41,1.97,1.82
LLTKVYVVEGS [ZMPSTE24_Y253_P248L],0.795,0.994,0.9,2,1.23,0.816,0.773,1.23,0.657,0.819,0.586,0.668,1.65,0.66,0.795,0.456
LMFPDYLPCSV [SAG_Y129_T125M],0.604,0.92,7.55,1.55,4.58,1.07,0.985,3.69,0.772,1.19,0.743,0.486,2.76,0.704,0.921,0.57
LMIEEYLTKEL [BAG3_Y457],0.685,0.993,0.759,2.04,1.14,0.911,1.42,2.83,1.18,0.629,0.723,0.872,2.23,1.16,0.981,0.514
LNNIIYRLERA [CUX2_Y1470_V1472L],1.01,1.37,0.907,1.37,1.19,1.24,1.31,1.27,3.45,0.812,2.59,1.1,1.67,1.84,1.62,0.557
LPPGTYPSDFA [UNC5B_Y511],0.461,0.412,0.543,0.96,0.595,0.482,0.565,0.791,0.422,0.5,0.451,0.424,0.744,0.714,0.84,0.369
LQRCKNSHMEP [TEX45_Y434_Y434N],0.741,0.848,0.958,0.865,0.729,0.939,0.641,0.9,0.747,0.782,0.956,0.809,0.599,0.942,1.15,0.691
LQRVQYDLQKA [DSP_Y1512],0.397,0.907,0.897,0.788,0.816,1.3,0.496,0.642,0.409,0.58,0.582,0.646,0.872,0.831,0.948,0.565
LRFDSYWSFCN [SLC20A2_Y433_S434W_YF],2.1,0.774,1.64,1.33,1.4,1.04,0.781,1.49,2.72,0.506,2.12,0.572,1.25,0.945,1.01,0.726
LRKQDYQEILD [SLC35G2_Y403],0.47,0.379,0.629,1.17,0.708,0.632,0.629,0.999,0.468,0.434,0.529,0.364,0.995,0.606,0.82,6.76
LRRQDYQEILD [SLC35G2_Y403_K400R],0.352,0.898,0.727,1.58,0.783,0.838,0.621,1.06,0.376,0.509,0.492,0.622,1.35,0.767,0.78,3.37
LSSEMYVKSFT [F5_Y2149_YF],0.933,0.788,1.15,1.27,0.975,0.609,0.684,0.965,0.307,0.837,0.647,0.641,1.35,0.708,0.676,0.364
LSVEIYDRREY [ITGB7_Y753],2.23,0.816,0.618,1.4,0.869,0.669,0.801,0.965,0.765,0.587,0.675,0.581,1.52,0.437,0.602,0.523
LTQRTYMSENN [GPAA1_Y49_A54N],0.703,0.879,1.13,1.46,1.09,0.783,1.01,0.67,0.549,0.867,0.479,0.87,1.11,0.676,0.709,0.442
LVFIKYLPEWT [PSEN1_Y240],0.555,0.734,0.615,1.92,1.27,0.898,1.11,1.97,0.4,0.744,0.361,0.769,1.78,1.43,1.6,0.902
LVQAEYWRDPI [PPT1_Y185_H187R],0.423,0.931,1.71,1.72,1.22,0.891,0.816,1.46,0.691,0.693,0.961,0.614,1.55,1.14,0.818,0.914
MAHDRYAAICS [OR8H2_Y123],0.48,0.444,0.494,0.646,0.439,0.41,0.396,0.44,0.424,0.372,0.437,0.424,0.547,1.91,0.9,5.4
MALDRYVASCK [OR2B11_Y127_I130S],0.435,0.593,0.397,0.846,0.569,0.465,0.592,0.667,0.436,0.475,0.421,0.385,0.649,0.698,0.799,0.579
MCVKSYTIHYS [F5_Y2153_Y2149C],0.552,0.569,0.513,1.26,0.878,0.682,0.726,0.942,0.45,0.636,0.517,0.459,1.12,0.592,0.811,0.472
MDNQEYKDAFK [BRDT_Y331_YF],0.584,0.602,0.504,1.39,0.67,0.715,1.22,1.22,0.526,0.505,0.493,0.442,1.15,0.721,1.07,0.532
MFFSKYDRDND [FGB_Y408_T407K],0.589,0.488,0.47,1.01,0.66,0.493,0.717,0.845,0.426,0.51,0.501,0.486,0.817,0.801,1.07,0.447
MGRVKYGAYIN [GLB1_Y485_N484K],0.401,0.408,0.374,0.569,0.47,0.282,0.461,0.447,0.378,0.416,0.472,0.358,0.506,1.51,2.27,1.38
MKMISYETLIA [DOCK10_Y1350_T1347M],0.581,0.566,0.634,0.948,0.629,0.659,0.65,0.888,0.421,0.467,0.468,0.485,0.784,1.24,0.752,2
MSFDRYMAICH [OR2A5_Y123_YF],0.527,0.669,0.567,1.08,0.68,0.868,0.69,0.878,0.497,0.557,0.494,0.498,0.897,0.688,0.829,0.859
MSPPGYKLLTG [GJA1_Y286_V289L],0.405,0.891,0.515,0.756,0.599,0.542,0.731,0.669,0.503,0.474,0.454,0.465,0.625,0.67,0.828,0.488
